Assay results from patent US20250145708A1 (GOOD T CELLS, published 2025).

What was measured:
Experiment in all cases: Lrig-1 peptide microarray (15-mers, 14 aa overlap), H6 at 1, 10 and 100 µg/ml
[1] = molecular target: T1, Lrig-1 epitope peptide SEQ ID NO: 22
T1 peptide: NSIARIHRKGW
Method: (§1) Pre-staining of a Lrig-1 peptide microarray copy using secondary and control antibodies in incubation buffer was performed to identify whether they can interact with antigen-derived peptides that can interfere with the main assays. Subsequent incubation of other Lrig-1 peptide microarray copies with the H6 monoclonal antibody of Production Example 8 (1 μg/ml, 10 μg/ml, and 100 μg/ml) in incubation buffer was followed by staining with secondary and control antibodies. Read-out was performed at a scanning intensity of 7/7 (red/green) using the LI-COR Odyssey Imaging System. Quantification of spot intensities and peptide annotation were based on the 16-bit gray scale tiff files. Microarray image analysis was done with PepSlide® Analyzer.

[2] = molecular target: T2, Lrig-1 epitope peptide SEQ ID NO: 20
T2 peptide: RLTQLDLNRNRIR
Method: as §1

[3] = molecular target: T3, Lrig-1 epitope peptide SEQ ID NO: 21
T3 peptide: DLNRNRIRLIEGLTF
Method: as §1

[4] = molecular target: T4, Lrig-1 epitope peptide SEQ ID NO: 18
T4 construct: it was not itself a separately tested peptide
T4 peptide: WTRSLNLSYNKL
Method: as §1

[5] = molecular target: T5, Lrig-1 epitope peptide SEQ ID NO: 28
T5 peptide: FFITDVKIDDAGVYS
Method: as §1

[6] = molecular target: T6, Lrig-1 epitope peptide SEQ ID NO: 24
T6 peptide: RQVTFGHEGRY
Method: as §1

[7] = molecular target: T7, Lrig-1 epitope peptide SEQ ID NO: 23
T7 peptide: WLPPWLIGRMLQAF
Method: as §1

[8] = molecular target: T8, Lrig-1 epitope peptide SEQ ID NO: 26
T8 peptide: RLTVNVLPSFTKTPH
Method: as §1

[9] = molecular target: T9, Lrig-1 epitope peptide SEQ ID NO: 19
T9 peptide: TEVRNTCFPHGPPI
Method: as §1

[10] = molecular target: T10, Lrig-1 epitope peptide SEQ ID NO: 25
T10 peptide: FGHEGRYQCVITNHF
Method: as §1

[11] = molecular target: T11, Lrig-1 epitope peptide SEQ ID NO: 27
T11 peptide: RRMHVMPDDDVFF
Method: as §1

Measured: binding result

B1: H6 clone monoclonal antibody (Production Example 8) (antibody, mouse IgG2a, V domains shown)
VH: EVQLLESGGGLVQPGGSLRLSCAASGFTFSNYAMSWVRQAPGKGLEWVSVISHGGGSTYYADSVKGRFTISRDNSKNTLYLQMNSLRAEDTAVYYCARVISNCHLGVCYYSNGMDVWGQGTLVTVSS
VL: QSVLTQPPSASGTPGQRVTISCSGSSSNIGNNDVYWYQQLPGTAPKLLIYSDSQRPSGVPDRFSGSKSGTSASLAISGLRSEDEADYYCGTWDYSLSGYVFGGGTKLTVLR
notes: also called H6 monoclonal antibody
binds: [1] | [2] | [3] | [4] | [5] | [6] | [7] | [8] | [9] | [10] | [11]
